This note sets out measurements from US20240093240, “GENE FUNCTION CONTROL BY NOVEL GUIDE NUCLEIC ACID MECHANISM” (NATIONAL UNIVERSITY CORPORATION KOBE UNIVERSITY, published 2024).

Data set [1] has as its target T1, RsAgo (UniProt A4WYU7 A4WYU7:1-777).
T1 sequence: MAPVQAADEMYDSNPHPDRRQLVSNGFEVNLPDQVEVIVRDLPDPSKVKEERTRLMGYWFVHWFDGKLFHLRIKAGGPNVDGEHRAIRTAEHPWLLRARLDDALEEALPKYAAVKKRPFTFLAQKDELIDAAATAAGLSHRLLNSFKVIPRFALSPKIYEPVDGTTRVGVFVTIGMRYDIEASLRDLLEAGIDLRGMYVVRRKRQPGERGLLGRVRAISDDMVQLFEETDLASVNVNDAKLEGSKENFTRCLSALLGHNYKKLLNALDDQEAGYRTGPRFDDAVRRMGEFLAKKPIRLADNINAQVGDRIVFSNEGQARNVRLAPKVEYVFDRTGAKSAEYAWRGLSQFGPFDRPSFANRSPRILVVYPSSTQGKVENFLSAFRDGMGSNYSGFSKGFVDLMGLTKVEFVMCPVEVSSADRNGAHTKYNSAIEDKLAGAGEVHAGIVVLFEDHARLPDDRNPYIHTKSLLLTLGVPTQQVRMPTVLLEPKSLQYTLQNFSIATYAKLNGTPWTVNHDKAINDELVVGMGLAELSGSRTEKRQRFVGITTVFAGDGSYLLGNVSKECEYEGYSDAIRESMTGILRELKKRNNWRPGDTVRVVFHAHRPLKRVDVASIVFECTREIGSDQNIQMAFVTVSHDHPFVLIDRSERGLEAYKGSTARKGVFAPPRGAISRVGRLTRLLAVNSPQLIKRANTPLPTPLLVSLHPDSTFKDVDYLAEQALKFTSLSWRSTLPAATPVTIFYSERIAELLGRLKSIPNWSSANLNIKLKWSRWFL
The data set is described as follows: EMSA; 500 nM RsAgo, 100 nM guide, 100-1000 nM target; 5 mM MgCl2, 25 C. Conditions: tag removed by Ulp1 protease; label: 3'-FAM; duplex with 18 nt mismatched bubble over the target site. The protocol: (§1) The purified protein (final 500 nM) and labelled guide RNA (final 100 nM) were mixed in the presence of the above reaction buffer and incubated for 15 minutes at 25° C. to form a complex. The target DNA was added (final 100 to 1000 nM) thereto.

Data set [2] addresses T1, RsAgo. The data set is described as follows: EMSA; cannot bind fully double stranded DNA on its own; 5 mM MgCl2, 25 C. Conditions: tag removed by Ulp1 protease; label: 3'-FAM. The protocol:
as §1
For orientation: A gel shift assay detects complexes by their altered migration in electrophoresis.

Data set [3] deals with T1, RsAgo. The data set is described as follows: EMSA; 20 mM HEPES-KOH pH 7.5, 200 mM NaCl, 5 mM MgCl2, 25 C. Particulars: tag removed by Ulp1 protease. The method, then: (§2) The purified protein and synthetic oligonucleotide were mixed in the presence of the above reaction buffer and incubated for 20 minutes at 25° C. […] Detection was performed with Blue light LED.
The target of data set [4] is T1, RsAgo. In words: EMSA; high affinity to 5'-P ssRNA; 5 mM MgCl2, 200 mM NaCl, 25 C. Particulars: tag removed by Ulp1 protease; label: 3'-FAM. The method, then:
as §2

B1: ssRNA 18 nt 5'-phosphate guide ; bubble target, 18 nt unpaired (ssRNA ; structured_DNA)
RNA: UUACAACCUACUACCUCG
DNA 1: GGATAACAATTCCCCTCTAGAAGTGGTTCGTGCTTCAACATGGGTCATCACCATCATC
DNA 2: GATGATGGTGATGACCCATGCGAGGTAGTAGGTTGTAACTAGAGGGGAATTGTTATCC
modifications: 5'-phosphate
As to B1, in the data set with RsAgo [1], the binding result is “binds”.

B2: ssRNA 18 nt 5'-phosphate guide ; fully double stranded target (ssRNA ; dsDNA)
RNA: UUACAACCUACUACCUCG
DNA 1: GGATAACAATTCCCCTCTAGTTACAACCTACTACCTCGCATGGGTCATCACCATCATC
DNA 2: GATGATGGTGATGACCCATGCGAGGTAGTAGGTTGTAACTAGAGGGGAATTGTTATCC
modifications: 5'-phosphate
Consider B2, for which the binding result with RsAgo [2] is listed as “no binding”.
On to UUACAACCUACUACCUCG (ssRNA) [ssRNA 18 nt 5'-OH], for which the binding result in the data set with RsAgo [3] (label: 3'-FAM) is recorded as “binds”.
With UUACAACCUACUACCUCG (ssRNA, 5'-phosphate) [ssRNA 18 nt 5'-phosphate guide], the binding result with RsAgo [4] is recorded as “binds”.
In the case of CGAGGTAGTAGGTTGTAA (ssDNA) [ssDNA 18 nt], the binding result with RsAgo [3] (label: 5'-FAM) is listed as “binds”.
